This note sets out measurements from paper PMC13534476, “The Arabidopsis SPFH protein HIR2 modulates receptor signaling and plasma membrane organization” (The EMBO Journal, 2026).

For orientation: stoichiometry N means a count of units in the complex or per binding partner.

This series deals with the molecule itself. The series can be described thus: SDS-PAGE with immunoblot (denaturing); denatured samples (SDS loading buffer, 5 min 95 °C) of the extracts made for BN-PAGE. For orientation: A western blot detects proteins with antibodies after separation by electrophoresis.

Values joined by “and” are separate entries in the source; they are usually repeats but may differ in a detail not shown here. Identical values can stand only once.

B1: HIR2-HA (natural protein, Arabidopsis thaliana, UniProt Q9SRH6 1-285, looked up)
chain: MGNLFCCVLVKQSDVAVKERFGKFQKVLNPGLQFVPWVIGDYVAGTLTLRLQQLDVQCETKTKDNVFVTVVASIQYRVLADKASDAFYRLSNPTTQIKAYVFDVIRACVPKLNLDDVFEQKNEIAKSVEEELDKAMTAYGYEILQTLIIDIEPDQQVKRAMNEINAAARMRVAASEKAEAEKIIQIKRAEGEAESKYLSGLGIARQRQAIVDGLRDSVLGFAGNVPGTSAKDVLDMVMMTQYFDTMRDIGATSKSSAVFIPHGPGAVSDVAAQIRNGLLQANNAS
notes: HIR2, Arabidopsis thaliana; also called HA-tagged HIR2; source: Nicotiana benthamiana leaves, transient expression, total protein extract
With B1, the “stoichiometry N” value is 2 and 4 and 6.
